# Measurements taken from the RNAGym collection of RNA variant scans (doi:10.7554/elife.90254).
# B1: LINE1-mini (parent)
# chain: GGCAGAGCUCAACACAGCGUGGCAAAGUGGCUGUGGCUAGACUGCC
# Variants of: B1
# Assay: self-cleavage, relative activity (ratio to wild type); higher = more cleavage; in vitro, sequencing; the parent is a self-cleaving ribozyme
row,Variant,self-cleavage
1,U9A G22C,0.09
2,U9A G22U,0.11
3,U9A G22A,0.14
4,U9C A25U,0.04
5,U9C A25G,0.04
6,U9C A25C,0.03
7,U9C A24G,0.07
8,U9C A24C,0.02
9,U9C A24U,0.05
10,U9A C37U,0.12
11,U9A C37A,0.21
12,U9A C37G,0.11
13,U9C A41G,0.05
14,U9C A41U,0.06
15,U9C A41C,0.04
16,U9C C23G,0.03
17,U9C C23A,0.02
18,U9C C23U,0.02
19,U9C A16U,0.04
20,U9C A16G,0.03
21,U9C A16C,0.02
22,U9A G21U,0.15
23,U9A G21A,0.3
24,U9A G21C,0.06

row,Variant,self-cleavage
1,U9A C18A,0.1
2,U9A C18U,0.11
3,U9A C18G,0.09
4,U9A U20C,0.12
5,U9A U20G,0.16
6,U9A U20A,0.16
7,U9A A16U,0.06
8,U9A A16C,0.08
9,U9A A16G,0.11
10,U9A G30C,0.1
11,U9A G30A,0.18
12,U9A G30U,0.08
13,U9A G44A,0.31
14,U9A G44C,0.07
15,U9A G44U,0.09
16,U9A A24U,0.33
17,U9A A24C,0.56
18,U9A A24G,0.2
19,U9A C31U,0.04
20,U9A C31A,0.07
21,U9A C31G,0.07
22,U9A A39C,0.17
23,U9A A39G,0.21
24,U9A A39U,0.1

row,Variant,self-cleavage
1,U9C C45A,0.05
2,U9C C45G,0.02
3,U9C C45U,0.03
4,U9A A25C,0.07
5,U9A A25U,0.15
6,U9A A25G,0.17
7,U9A G33A,0.11
8,U9A G33U,0.07
9,U9A G33C,0.07
10,U9A C13G,0.23
11,U9A C13A,0.2
12,U9A C13U,0.29
13,U9C C18A,0.03
14,U9C C18G,0.03
15,U9C C18U,0.01
16,U9A G19U,0.08
17,U9A G19A,0.15
18,U9A G19C,0.06
19,U9A G35C,0.08
20,U9A G35A,0.15
21,U9A G35U,0.09
22,U9C A12G,0.04
23,U9C A12C,0.04
24,U9C A12U,0.03

row,Variant,self-cleavage
1,U9C C10A,0.03
2,U9C C10U,0.04
3,U9C C10G,0.03
4,U9A C45U,0.28
5,U9A C45A,0.31
6,U9A C45G,0.32
7,U9A C46G,0.12
8,U9A C46A,0.17
9,U9A C46U,0.17
10,U9A C10A,0.04
11,U9A C10U,0.08
12,U9A C10G,0.04
13,U9C C15G,0.04
14,U9C C15U,0.04
15,U9C C15A,0.03
16,U9A C42A,0.06
17,U9A C42U,0.15
18,U9A C42G,0.13
19,U9A U38C,0.12
20,U9A U38G,0.22
21,U9A U38A,0.08
22,U9A U32G,0.19
23,U9A U32A,0.11
24,U9A U32C,0.13

row,Variant,self-cleavage
1,U9C A11C,0.02
2,U9C A11G,0.02
3,U9C A11U,0.03
4,U9A A41G,0.05
5,U9A A41U,0.28
6,U9A A41C,0.08
7,U9A G29U,0.15
8,U9A G29C,0.05
9,U9A G29A,0.2
10,U9C,0.04
11,U9A A26C,0.23
12,U9A A26U,0.21
13,U9A A26G,0.09
14,U9C C13A,0.05
15,U9C C13G,0.04
16,U9C C13U,0.03
17,U9A G40U,0.1
18,U9A G40C,0.08
19,U9A G40A,0.19
20,U9A C15U,0.17
21,U9A C15A,0.13
22,U9A C15G,0.25
23,U9C A14G,0.03
24,U9C A14U,0.07

row,Variant,self-cleavage
1,U9C A14C,0.02
2,U9C A26C,0.03
3,U9C A26U,0.11
4,U9C A26G,0.05
5,U9A U43C,0.14
6,U9A U43G,0.28
7,U9A U43A,0.2
8,U9A G27C,0.11
9,U9A G27U,0.14
10,U9A G27A,0.1
11,U9A C23U,0.21
12,U9A C23A,0.14
13,U9A C23G,0.16
14,U9A A11G,0.03
15,U9A A11U,0.03
16,U9A G17U,0.13
17,U9A G17A,0.07
18,U9A G17C,0.06
19,U9C C46A,0.03
20,U9C C46G,0.03
21,U9A G36U,0.1
22,U9A G36A,0.34
23,U9A G36C,0.06
24,U9C C31A,0.02

row,Variant,self-cleavage
1,U9C C31G,0.02
2,U9C C31U,0.03
3,U9C A39G,0.02
4,U9C A39C,0.02
5,U9C A39U,0.05
6,U9A A12C,0.03
7,U9A A12G,0.05
8,U9A A12U,0.13
9,U9C C37G,0.01
10,U9C C37A,0.02
11,U9C C37U,0.04
12,U9A U28G,0.15
13,U9A U28A,0.17
14,U9A U28C,0.1
15,U9C C42A,0.03
16,U9C C42G,0.03
17,U9C C42U,0.04
18,U9A A14G,0.17
19,U9A A14C,0.04
20,U9A A14U,0.11
21,U9A U34A,0.21
22,U9A U34G,0.08
23,U9A U34C,0.18
